Patent WO2020171171A1 (dated 2020)

Biological target: HLA-DR antigen expressed on human cells (L428, KM-H2, B cells of PBMC, other cancer cell lines, tumour tissue) (human)
Experiment: cell-based or functional assay

B1: BP1206 chimeric antibody (human Fc chimeric recombinant antibody designed based on the antibody LN-3) (antibody, human IgG1, kappa, L234A L235A, V domains shown)
VH: QVHLKQSGPGLVQPSQSLSITCTVSGFSLTRFGVHWIRQSPGKSLEWLGVTWSGGTTVYNGAFISRLSITKDISKSQVFFKMNSLQVDDTGIYYCARAYYAMDYWGQGTSVTVSS
VL: DVQMTQSPSYLAASPGETITIHCRASESIGKYLAWYQKKPGRSNRLLIYSGSTLQSGIPSRFSGSGSGTDFTLTVSSLEPEDFAMYYCQHHNDYPWTFGGGTKVEIKR
decrease in abundance of B cells (CD19 positive cells) among live PBMC, relative to isotype control (1 μg/ml antibody, 2 h, flow cytometry): ~60%
